Laboratory results published in article PMC3118390, “PKC isoforms interact with and phosphorylate DNMT1” (BMC Biology, 2011).

T1: recombinant PKCζ (human, UniProt Q05513 1-592)
T1 construct: also called rec; PKCζ
T1 sequence (looked up): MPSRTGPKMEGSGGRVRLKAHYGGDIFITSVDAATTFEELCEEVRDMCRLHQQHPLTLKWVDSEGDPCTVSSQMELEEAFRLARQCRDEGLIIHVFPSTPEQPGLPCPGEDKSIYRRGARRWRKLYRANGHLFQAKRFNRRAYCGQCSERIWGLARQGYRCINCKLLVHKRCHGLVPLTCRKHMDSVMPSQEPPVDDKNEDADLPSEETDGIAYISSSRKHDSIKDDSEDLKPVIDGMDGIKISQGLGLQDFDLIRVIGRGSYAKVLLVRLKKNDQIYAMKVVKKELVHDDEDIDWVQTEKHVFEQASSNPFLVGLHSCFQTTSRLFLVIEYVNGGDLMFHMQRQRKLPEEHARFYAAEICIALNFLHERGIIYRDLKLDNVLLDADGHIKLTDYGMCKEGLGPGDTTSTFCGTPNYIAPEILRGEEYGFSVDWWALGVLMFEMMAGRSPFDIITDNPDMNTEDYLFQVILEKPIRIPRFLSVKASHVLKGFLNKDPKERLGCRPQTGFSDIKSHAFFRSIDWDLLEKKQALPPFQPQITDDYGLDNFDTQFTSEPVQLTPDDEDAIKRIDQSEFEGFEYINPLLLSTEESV

B1: GST fusion DNMT1 fragment 1081 to 1409 (domain or fragment, human, UniProt P26358 1081-1409, looked up)
chain: NRFYFLEAYNAKSKSFEDPPNHARSPGNKGKGKGKGKGKPKSQACEPSEPEIEIKLPKLRTLDVFSGCGGLSEGFHQAGISDTLWAIEMWDPAAQAFRLNNPGSTVFTEDCNILLKLVMAGETTNSRGQRLPQKGDVEMLCGGPPCQGFSGMNRFNSRTYSKFKNSLVVSFLSYCDYYRPRFFLLENVRNFVSFKRSMVLKLTLRCLVRMGYQCTFGVLQAGQYGVAQTRRRAIILAAAPGEKLPLFPEPLHVFAPRACQLSVVVDDKKFVSNITRLSSGPFRTITVRDTMSDLPEVRNGASALEISYNGEPQSWFQRQLRGAQYQPIL
notes: source: E. coli BL21, purified on glutathione-Sepharose beads
B2: GST fusion DNMT1 fragment 1374 to 1616 (domain or fragment, human, UniProt P26358 1374-1616, looked up)
chain: LPEVRNGASALEISYNGEPQSWFQRQLRGAQYQPILRDHICKDMSALVAARMRHIPLAPGSDWRDLPNIEVRLSDGTMARKLRYTHHDRKNGRSSSGALRGVCSCVEAGKACDPAARQFNTLIPWCLPHTGNRHNHWAGLYGRLEWDGFFSTTVTNPEPMGKQGRVLHPEQHRVVSVRECARSQGFPDTYRLFGNILDKHRQVGNAVPPPLAKAIGLEIKLCMLAKARESASAKIKEEEAAKD
notes: as for B1
B3: GST fusion DNMT1 fragment 1 to 446 (domain or fragment, human, UniProt P26358 1-446, looked up)
chain: MPARTAPARVPTLAVPAISLPDDVRRRLKDLERDSLTEKECVKEKLNLLHEFLQTEIKNQLCDLETKLRKEELSEEGYLAKVKSLLNKDLSLENGAHAYNREVNGRLENGNQARSEARRVGMADANSPPKPLSKPRTPRRSKSDGEAKPEPSPSPRITRKSTRQTTITSHFAKGPAKRKPQEESERAKSDESIKEEDKDQDEKRRRVTSRERVARPLPAEEPERAKSGTRTEKEEERDEKEEKRLRSQTKEPTPKQKLKEEPDREARAGVQADEDEDGDEKDEKKHRSQPKDLAAKRRPEEKEPEKVNPQISDEKDEDEKEEKRRKTTPKEPTEKKMARAKTVMNSKTHPPKCIQCGQYLDDPDLKYGQHPPDAVDEPQMLTNEKLSIFDANESGFESYEALPQHKLTCFSVYCKHGHLCPIDTGLIEKNIELFFSGSAKPIYDDD
notes: DNA methyltransferase 1 (DNMT1), human, amino acids 1-446; also called N-terminal domain (amino acids 1-446) of DNMT1; source: E. coli BL21, purified on glutathione-Sepharose beads

Each binder was assayed against T1, recombinant PKCζ (assay: pull-down; GST fusion DNMT1 fragments on glutathione beads, pre-incubated with 100 μg/ml BSA; 10 ng recombinant PKCζ, 4°C, one hour; binding buffer 50 mM Tris pH 7.5, 28 μM ZnCl2, 1% Triton X-100, 220 mM NaCl, 10% glycerol; washes with 500 mM NaCl; blot with a PKCζ antibody). Details: both partners purified.

Binding result, binds:
B1, B2, B3
